Experimental findings from patent US20110280900A1 (INTERVET INTERNATIONAL B V, published 2011) are described below.

The data set concerns the molecule itself. In words: immunoblot after non-denaturing gel; only the 65 kDa band detected. A general note: Immunoblotting shows a protein as a band on a membrane.

B1: Clostridium chauvoei toxin A (CctA), native secreted toxin in C. chauvoei culture supernatants (other)
chain: QENTCIVETPSEGVKTFTSSDTAYADYNCFKTNLSVTFIEDQHNNQLTALVSTEGSFIPSGLSRVGGYYQADMYWPSKYYTTLTTYDRNNRVKITKSIPTNQIDTVSVSETMGYSIGGSLSIEYGKEGPKAGGGINGSYTAQRSVTYDQPDYRTLLMKDSVNSASWEVAFNATKDGYDRDSYHGIYGNQLFMRYRLYNTGINNLTTDNNLSSLIVGGFSPKVVIALTAPKGTEESTVKVEYNRFNDQYRLRWSGTEWYGENNRNSRIDSSSESFILNWKNHTVEHAGY
notes: also called CctA toxin; mature CctA
B1: the binding result is given as “binds”.
